Patent US20220168347A1 (published 2022)

Biological target: T1, gp100 (gp100-intron4) peptide on HLA-A*24:02 (human)
T1 peptide: VYFFLPDHL
Test: multimer staining

binding result: recognises
B1: A*24:02/gp100-intron4 TCR (TCR, V domains shown)
Valpha: KQEVTQIPAALSVPEGENLVLNCSFTDSAIYNLQWFRQDPGKGLTSLLLIQSSQREQTSGRLNASLDKSSGRSTLYIAASQPGDSATYLCAVATDSWGKLQFGAGTQVVVTP
Vbeta: AAGVIQSPRHLIKEKRETATLKCYPIPRHDTVYWYQQGPGQDPQFLISFYEKMQSDKGSIPDRFSAQQFSDYHSELNMSSLELGDSALYFCASSLLPEGTGRVSGYTFGSGTRLTVV
